In the supplement of paper PMC12783771:
± gives the standard deviation of the averaged measurements.

B1: library; numbered along this chain (parent)
chain: MNIQIGELAKRTACPVVTIRFYEQEGLLPPPGRSRGNFRLYGEEHVERLQFIRHCRSLDMPLSDVRTLLSYRKRPDQDCGEVNMLLDEHIRQVESRIGALLELKHHLVELREACSGARPAQSCGILQGLSDCVCDTRGTTAHPSD

How the values were obtained:
[1] = variants of: B1; assay: sfGFP reporter fluorescence (15 h) (µM FITC); higher = higher leak; conditions: library round: Round 0; ligand: none
In short: (§1)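 PCR-made linear PbrR templates (Echo-normalized to 5 nM) were expressed in BL21 Star (DE3) extract (PANOx-SP) with pPbrR-sfGFP reporter plasmid and 30 μg/mL GamS. Reactions were 1 μL, Echo-assembled, with 1 µM lead chloride, 30 µM zinc acetate or no metal, incubated 15 hr at 30 °C. Endpoint sfGFP fluorescence (485/528 nm, Synergy Neo2) was converted to µM FITC via standard curves in 50 mM sodium borate pH 8.5. Up to three biological replicates.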

[2] = variants of: B1; assay: sfGFP reporter fluorescence (15 h) (µM FITC); higher = stronger transcriptional activation; conditions: library round: Round 0
In short: as §1

V82R
sfGFP reporter fluorescence [1]: 0.0605 ± 0.0015
sfGFP reporter fluorescence ([2]; ligand: 1 µM Pb): 0.05937 ± 0.00052
sfGFP reporter fluorescence ([2]; ligand: 30 µM Zn): 0.0568 ± 0.001

V82N
sfGFP reporter fluorescence [1]: 0.0597 ± 0.001
sfGFP reporter fluorescence ([2]; ligand: 1 µM Pb): 0.0597 ± 0.0015
sfGFP reporter fluorescence ([2]; ligand: 30 µM Zn): 0.05644 ± 0.00052

L28D
sfGFP reporter fluorescence [1]: 0.06194 ± 0.00052
sfGFP reporter fluorescence ([2]; ligand: 1 µM Pb): 0.0632 ± 0.00078
sfGFP reporter fluorescence ([2]; ligand: 30 µM Zn): 0.06359 ± 0.00026

L28M
sfGFP reporter fluorescence [1]: 0.0616
sfGFP reporter fluorescence ([2]; ligand: 1 µM Pb): 0.077 ± 0.0015
sfGFP reporter fluorescence ([2]; ligand: 30 µM Zn): 0.618 ± 0.023

L28V
sfGFP reporter fluorescence [1]: 0.06175 ± 0.00026
sfGFP reporter fluorescence ([2]; ligand: 1 µM Pb): 0.0819 ± 0.0013
sfGFP reporter fluorescence ([2]; ligand: 30 µM Zn): 0.5124 ± 0.0026

L28W
sfGFP reporter fluorescence [1]: 0.061 ± 0.0018
sfGFP reporter fluorescence ([2]; ligand: 1 µM Pb): 0.0821 ± 0.001
sfGFP reporter fluorescence ([2]; ligand: 30 µM Zn): 0.878 ± 0.019

D64M
sfGFP reporter fluorescence [1]: 2.97 ± 0.48
sfGFP reporter fluorescence ([2]; ligand: 1 µM Pb): 3.46 ± 0.68
sfGFP reporter fluorescence ([2]; ligand: 30 µM Zn): 4.15 ± 0.31

D64A
sfGFP reporter fluorescence [1]: 0.0874 ± 0.0065
sfGFP reporter fluorescence ([2]; ligand: 1 µM Pb): 0.158 ± 0.049
sfGFP reporter fluorescence ([2]; ligand: 30 µM Zn): 2.22 ± 0.24

P61N G128M
sfGFP reporter fluorescence [1]: 0.481 ± 0.039
sfGFP reporter fluorescence ([2]; ligand: 1 µM Pb): 1.59 ± 0.34
sfGFP reporter fluorescence ([2]; ligand: 30 µM Zn): 4.72 ± 0.4

G124A
sfGFP reporter fluorescence [1]: 0.05919 ± 0.00026
sfGFP reporter fluorescence ([2]; ligand: 1 µM Pb): 0.064 ± 0.0013
sfGFP reporter fluorescence ([2]; ligand: 30 µM Zn): 0.222 ± 0.015

E109S
sfGFP reporter fluorescence [1]: 0.0592 ± 0.00078
sfGFP reporter fluorescence ([2]; ligand: 1 µM Pb): 0.0803 ± 0.0026
sfGFP reporter fluorescence ([2]; ligand: 30 µM Zn): 1.47 ± 0.04

D131M
sfGFP reporter fluorescence [1]: 0.0687 ± 0.0018
sfGFP reporter fluorescence ([2]; ligand: 1 µM Pb): 0.126 ± 0.0073
sfGFP reporter fluorescence ([2]; ligand: 30 µM Zn): 1.17 ± 0.17

D131N
sfGFP reporter fluorescence [1]: 0.0654 ± 0.00078
sfGFP reporter fluorescence ([2]; ligand: 1 µM Pb): 0.103 ± 0.0093
sfGFP reporter fluorescence ([2]; ligand: 30 µM Zn): 1.13 ± 0.24

D131A
sfGFP reporter fluorescence [1]: 0.0691 ± 0.00078
sfGFP reporter fluorescence ([2]; ligand: 1 µM Pb): 0.1098 ± 0.00078
sfGFP reporter fluorescence ([2]; ligand: 30 µM Zn): 1.141 ± 0.0013

D131W
sfGFP reporter fluorescence [1]: 0.05699 ± 0.00026
sfGFP reporter fluorescence ([2]; ligand: 1 µM Pb): 0.07275 ± 0.00026
sfGFP reporter fluorescence ([2]; ligand: 30 µM Zn): 0.356 ± 0.046

D131I
sfGFP reporter fluorescence [1]: 0.0607 ± 0.0029
sfGFP reporter fluorescence ([2]; ligand: 1 µM Pb): 0.0797 ± 0.0049
sfGFP reporter fluorescence ([2]; ligand: 30 µM Zn): 0.832 ± 0.073

D131F
sfGFP reporter fluorescence [1]: 0.0596 ± 0.0013
sfGFP reporter fluorescence ([2]; ligand: 1 µM Pb): 0.0821 ± 0.0057
sfGFP reporter fluorescence ([2]; ligand: 30 µM Zn): 0.723 ± 0.048

D131K
sfGFP reporter fluorescence [1]: 0.0706 ± 0.0029
sfGFP reporter fluorescence ([2]; ligand: 1 µM Pb): 0.127 ± 0.012
sfGFP reporter fluorescence ([2]; ligand: 30 µM Zn): 1.5 ± 0.34

D64K K104V G128M
sfGFP reporter fluorescence [1]: 1.36 ± 0.059
sfGFP reporter fluorescence ([2]; ligand: 1 µM Pb): 2.78 ± 0.079
sfGFP reporter fluorescence ([2]; ligand: 30 µM Zn): 4.45 ± 0.11

V16N
sfGFP reporter fluorescence [1]: 0.0643 ± 0.0013
sfGFP reporter fluorescence ([2]; ligand: 1 µM Pb): 0.08686 ± 0.00052
sfGFP reporter fluorescence ([2]; ligand: 30 µM Zn): 0.487 ± 0.011

V16H
sfGFP reporter fluorescence [1]: 0.06542 ± 0.00026
sfGFP reporter fluorescence ([2]; ligand: 1 µM Pb): 0.109 ± 0.0086
sfGFP reporter fluorescence ([2]; ligand: 30 µM Zn): 0.447 ± 0.0096

V16W
sfGFP reporter fluorescence [1]: 0.0599 ± 0.0018
sfGFP reporter fluorescence ([2]; ligand: 1 µM Pb): 0.0623 ± 0.0021
sfGFP reporter fluorescence ([2]; ligand: 30 µM Zn): 0.064 ± 0.00078

V16I
sfGFP reporter fluorescence [1]: 0.05864 ± 0.00052
sfGFP reporter fluorescence ([2]; ligand: 1 µM Pb): 0.0768 ± 0.0018
sfGFP reporter fluorescence ([2]; ligand: 30 µM Zn): 0.981 ± 0.061

Y41C
sfGFP reporter fluorescence [1]: 0.0618 ± 0.0018
sfGFP reporter fluorescence ([2]; ligand: 1 µM Pb): 0.0592 ± 0.00078
sfGFP reporter fluorescence ([2]; ligand: 30 µM Zn): 0.0654 ± 0.0018

Y41V
sfGFP reporter fluorescence [1]: 0.059 ± 0.001
sfGFP reporter fluorescence ([2]; ligand: 1 µM Pb): 0.05974 ± 0.00052
sfGFP reporter fluorescence ([2]; ligand: 30 µM Zn): 0.0687 ± 0.0013

Y41K
sfGFP reporter fluorescence [1]: 0.06047 ± 0.00052
sfGFP reporter fluorescence ([2]; ligand: 1 µM Pb): 0.061 ± 0.0029
sfGFP reporter fluorescence ([2]; ligand: 30 µM Zn): 0.0621 ± 0.0018

Y41F
sfGFP reporter fluorescence [1]: 0.0572 ± 0.0031
sfGFP reporter fluorescence ([2]; ligand: 1 µM Pb): 0.1001 ± 0.00052
sfGFP reporter fluorescence ([2]; ligand: 30 µM Zn): 1.19 ± 0.041

L85D
sfGFP reporter fluorescence [1]: 0.0577 ± 0.0013
sfGFP reporter fluorescence ([2]; ligand: 1 µM Pb): 0.0563 ± 0.0013
sfGFP reporter fluorescence ([2]; ligand: 30 µM Zn): 0.0537 ± 0.0013

L85H
sfGFP reporter fluorescence [1]: 0.0603 ± 0.0018
sfGFP reporter fluorescence ([2]; ligand: 1 µM Pb): 0.05827 ± 0.00052
sfGFP reporter fluorescence ([2]; ligand: 30 µM Zn): 0.0629 ± 0.00078

L85Q
sfGFP reporter fluorescence [1]: 0.0586 ± 0.001
sfGFP reporter fluorescence ([2]; ligand: 1 µM Pb): 0.0581 ± 0.00078
sfGFP reporter fluorescence ([2]; ligand: 30 µM Zn): 0.0658 ± 0.0023

C123H
sfGFP reporter fluorescence [1]: 0.0588 ± 0.0018
sfGFP reporter fluorescence ([2]; ligand: 1 µM Pb): 0.05901 ± 0.00052
sfGFP reporter fluorescence ([2]; ligand: 30 µM Zn): 0.0561 ± 0.0021

C123T
sfGFP reporter fluorescence [1]: 0.0586 ± 0.0021
sfGFP reporter fluorescence ([2]; ligand: 1 µM Pb): 0.0572 ± 0.0015
sfGFP reporter fluorescence ([2]; ligand: 30 µM Zn): 0.0568 ± 0.0036

C123A
sfGFP reporter fluorescence [1]: 0.0575 ± 0.001
sfGFP reporter fluorescence ([2]; ligand: 1 µM Pb): 0.0553
sfGFP reporter fluorescence ([2]; ligand: 30 µM Zn): 0.0533 ± 0.00078

R33N
sfGFP reporter fluorescence [1]: 0.0632 ± 0.00078
sfGFP reporter fluorescence ([2]; ligand: 1 µM Pb): 0.0817 ± 0.028
sfGFP reporter fluorescence ([2]; ligand: 30 µM Zn): 0.06084 ± 0.00052

R33A
sfGFP reporter fluorescence [1]: 0.0614 ± 0.0023
sfGFP reporter fluorescence ([2]; ligand: 1 µM Pb): 0.0594
sfGFP reporter fluorescence ([2]; ligand: 30 µM Zn): 0.0625 ± 0.00078

R33L
sfGFP reporter fluorescence [1]: 0.0605 ± 0.001
sfGFP reporter fluorescence ([2]; ligand: 1 µM Pb): 0.06175 ± 0.00026
sfGFP reporter fluorescence ([2]; ligand: 30 µM Zn): 0.108 ± 0.0042

R33T
sfGFP reporter fluorescence [1]: 0.0634
sfGFP reporter fluorescence ([2]; ligand: 1 µM Pb): 0.06267 ± 0.00052
sfGFP reporter fluorescence ([2]; ligand: 30 µM Zn): 0.06285 ± 0.00026

R118A
sfGFP reporter fluorescence [1]: 0.0676 ± 0.0018
sfGFP reporter fluorescence ([2]; ligand: 1 µM Pb): 0.0665 ± 0.00078
sfGFP reporter fluorescence ([2]; ligand: 30 µM Zn): 0.168 ± 0.026

N83F
sfGFP reporter fluorescence [1]: 0.0588 ± 0.00078
sfGFP reporter fluorescence ([2]; ligand: 1 µM Pb): 0.07275 ± 0.00026
sfGFP reporter fluorescence ([2]; ligand: 30 µM Zn): 0.05882 ± 0.00026

N83S
sfGFP reporter fluorescence [1]: 0.0605 ± 0.0026
sfGFP reporter fluorescence ([2]; ligand: 1 µM Pb): 0.0775 ± 0.00078
sfGFP reporter fluorescence ([2]; ligand: 30 µM Zn): 0.333 ± 0.016

H105A
sfGFP reporter fluorescence [1]: 0.0623
sfGFP reporter fluorescence ([2]; ligand: 1 µM Pb): 0.0687 ± 0.0044
sfGFP reporter fluorescence ([2]; ligand: 30 µM Zn): 0.769 ± 0.086

R39E
sfGFP reporter fluorescence [1]: 0.0614 ± 0.0013
sfGFP reporter fluorescence ([2]; ligand: 1 µM Pb): 0.0634
sfGFP reporter fluorescence ([2]; ligand: 30 µM Zn): 0.066 ± 0.0015

R39V
sfGFP reporter fluorescence [1]: 0.0588 ± 0.00078
sfGFP reporter fluorescence ([2]; ligand: 1 µM Pb): 0.05882 ± 0.00026
sfGFP reporter fluorescence ([2]; ligand: 30 µM Zn): 0.05736 ± 0.00026

Y22D
sfGFP reporter fluorescence [1]: 0.06066 ± 0.00026
sfGFP reporter fluorescence ([2]; ligand: 1 µM Pb): 0.0618 ± 0.0018
sfGFP reporter fluorescence ([2]; ligand: 30 µM Zn): 0.06011 ± 0.00052
